Numbering of substitutions follows the chain as printed. In names and notes the source's numbering stands.
B1: purine nucleoside phosphorylase (PNP) (Homo sapiens) (protein)
chain: MENGYTYEDYKNTAEWLLSHTKHRPQVAIICGSGLGGLTDKLTQAQIFDYGEIPNFPRSTVPGHAGRLVFGFLNGRACVMMQGRFHMYEGYPLWKVTFPVRVFHLLGVDTLVVTNAAGGLNPKFEVGDIMLIRDHINLPGFSGQNPLRGPNDERFGDRFPAMSDAYDRTMRQRALSTWKQMGEQRELQEGTYVMVAGPSFETVAECRVLQKLGADAVGMSTVPEVIVARHCGLRVFGFSLITNKVIMDYESLEKANHEEVLAAGKQAAQKLEQFVSILMASIPLPDKAS
B2: purine nucleoside phosphorylase (PNP) (Homo sapiens; E258D/L261A) (protein)
chain: B1 chain with E258D, L261A

Substrate: Nc1nc2c(ncn2[C@@H]2O[C@H](CO)[C@@H](O)[C@H]2O)c(=O)[nH]1
Experiment: purified protein
Type: biochemical, Homo sapiens
[1] = phosphate catalytic site (His257, Asn243, Glu201)

Row | Protein | Km [1] | kcat [1] | kcat/Km [1] | Km (phosphate catalytic site) | kcat (phosphate catalytic site) | kcat/Km (phosphate catalytic site)
1 | B1 | 63 ± 8 µM | 8.8 ± 0.5 s⁻¹ | 140000 M⁻¹ s⁻¹ |  |  | 
2 | B2 |  |  |  | 73 ± 13 µM | 4.2 ± 0.4 s⁻¹ | 58000 M⁻¹ s⁻¹

From article PMC4794390
